Holding throughout (assay): native gel or EMSA; BN-PAGE (4-16% gradient) of 1% dodecylmaltoside extracts of cell lines cultured 24 hr with tetracycline, without or with 4 M urea; immunoblot with anti-TfR or anti-VSG221
The target in series [1] is ESAG7, subunit of the transferrin receptor (TfR) without GPI anchor (T. brucei brucei (Lister 427)).
Series [2] has as its target ESAG6, GPI-anchored subunit of the transferrin receptor (TfR) (T. brucei brucei (Lister 427)).
Series [3] deals with the molecule itself.

As for “ESAG7, subunit of the transferrin receptor (TfR) without GPI anchor (natural protein)”, the stoichiometry N in series [1] came to 2.
In turn, “ESAG6, GPI-anchored subunit of the transferrin receptor (TfR) (natural protein)” registered a stoichiometry N in series [2] of 2.

B1: variant surface glycoprotein VSG221 (MITat1.2) (natural protein)
chain: AAEKGFKQAFWQPLCQVSEELDDQPKGALFTLQAAASKIQKMRDAALRASIYAEINHGTNRAKAAVIVANHYAMKADSGLEALKQTLSSQEVTATATASYLKGRIDEYLNLLLQTKESGTSGCMMDTSGTNTVTKAGGTIGGVPCKLQLSPIQPKRPAATYLGKAGYVGLTRQADAANNFHDNDAECRLASGHNTNGLGKSGQLSAAVTMAAGYVTVANSQTAVTVQALDALQEASGAAHQPWIDAWKAKKALTGAETAEFRNETAGIAGKTGVTKLVEEALLKKKDSEASEIQTELKKYFSGHENEQWTAIEKLISEQPVAQNLVGDNQPTKLGELEGNAKLTTILAYYRMETAGKFEVLTQKHKPAESQQQAAETEGSCNKKDQNECKSPCKWHNDAENKKCTLDKEEAKKVADETAKDGKTGNTNTTGSS
modifications: GPI anchor, C-terminal
notes: variant surface glycoprotein VSG221 of MITat1.2, T. brucei brucei Lister 427; Internal control of the BN-PAGE; also called dVSG; mVSG; source: endogenous, bloodstream form T. brucei brucei Lister 427 (MITat1.2), dodecylmaltoside extract
Take B1: in series [3], the “stoichiometry N” value was found to be 2.

The values above are taken from paper PMC5426795, “Controlling transferrin receptor trafficking with GPI-valence in bloodstream stage African trypanosomes” (PLoS Pathogens, 2017).
